In patent US20240390531A1 (IMAGINAB, published 2024) one finds Kd, koff and kon data, which are given here for eleven molecules.

In experiment [1] the target is T1, purified human FAP antigen (human, UniProt Q12884 26-760, limits assumed). The experiment is described as follows: ELISA, plate coated with purified human FAP antigen (FIG. 56D-56E). The protocol:
(§1) Binding kinetics of the novel antigen binding constructs to a purified human FAP antigen was assessed using ELISA. For this assay, a 96 well ELISA plate was coated with the human-FAP antigen diluted to a concentration of 2 mg/mL in coating buffer (0.05M sodium carbonate-bicarbonate buffer, pH 9.6). 100 μl of this coating solution was added to each well in the plate and incubate at 4° C. overnight. The plate was washed 3 times with 300 μl per well of washing buffer (PBS with 0.05% Tween-20). After the last wash, the plate was blocked by adding to each well 200 μl of blocking buffer (PBS with 1% BSA) warmed to room temperature. The plate was then incubated at room temperature for 1 hour under gentle agitation. After blocking, the plate was washed 3 times with 300 μl per well of washing buffer. Dilution samples for each minibody were created by making 2.5× dilutions from a starting sample at 100 ng/mL, or 250 ng/mL, or 1000 ng/mL or 3000 ng/mL in 100 μL sample buffer (PBS with 1% BSA). The dilution samples were transferred to the assay plate and incubated at room temperature for 1 hour under gentle agitation. The plate was then washed 3 times with 300 μl per well of washing buffer.
(§2) Detection was performed by adding 100 μl of HRP labeled detection secondary antibody at an appropriate dilution and incubating the plate at room temperature for 1 hour under gentle agitation. The plate was then washed 3 times with 300 μl per well of washing buffer. For color development, 100 μl of TMB substrate regent, pre-warmed to room temperature, was added to the plate and incubated in the dark at room temperature for 15 min. The reaction was then stopped by adding 100 μl of 650 nm stop solution to the plate and mixed for 1 min at room temperature under gentle agitation. The plate is recorded by reading OD at 650 nm in a plate reader within 20 min after terminating the reaction.
For orientation: An ELISA detects its analyte on a solid surface through an enzyme-linked reagent.

The target in experiment [2] is T1, purified human FAP antigen. The experiment is described as follows: ELISA, plate coated with purified human FAP antigen (FIG. 56A-56C). Here is the method: as §1, §2
A further experiment concerns the target T2, human FAP on cells (human, UniProt Q12884 1-760).
T2 construct: whole, on cells; The cell line is named under assay; also called HT1080 human FAP cells; HT1080-hFAP cells
The experiment in a line: flow cytometry on U87-MG glioblastoma cells (FIG. 58B). The protocol:
As disclosed herein, the binding of constructs to cellular targets was assessed using flow cytometry. Stock of 2.5× serial dilution of minibodies were created starting from a concentration of 100 nM in […] FACS buffer (PBS 2% FBS). Cells were added to a Corning V-bottom polypropylene cell culture plate at 200,000 cells/well. The cells were centrifuged at 100 rpm for 3 minutes and the supernatant discarded. The minibody dilution series were transferred to the plate containing cell pellets and incubated for 1 hr at 4° C. The plate was then washed 3 times with FACS buffer at 200 µl/well, discarding supernatant after each wash by centrifugation at 1000 rpm. 50 µl/well of detection antibody R&D AlexaFluor-647 Goat anti Human (H+L) was added at a 1:100 dilution in FACS buffer and incubated at 4° C. 1 hr. The plate was washed 3 times with FACS buffer at 200 µl/well, discarding supernatant after each wash by centrifuging at 1000 rpm. Cells were then fixed by adding 100 µl of 1% paraformaldehyde in PBS and incubating at room temperature for 15 minutes. 100 µl of PBS were added to each well and the plate was analyzed by flow cytometry using the allophycocyanin fluorescence setting.
On the technique in general: Flow cytometry measures light scatter and fluorescence of single cells or particles in a stream.

The target of experiment [3] is T1, purified human FAP antigen. The experiment is described as follows: ELISA, plate coated with purified human FAP antigen (FIG. 91A). The protocol:
as §1

Another experiment concerns the target FAP (UniProt Q12884 26-760, limits assumed). The experiment is described as follows: binding kinetics, method not stated (FIG. 42A).
Experiment [4] addresses T1, purified human FAP antigen. The experiment in a line: ELISA, plate coated with purified human FAP antigen (FIG. 91F). The protocol:
as §1

Usually Kd stands for the equilibrium constant for the complex coming apart. Lower therefore signals a tighter complex. For orientation: koff means the rate constant with which the complex falls apart. The low end stands for a long-lived complex, the high end for a short-lived complex. In general, kon refers to a measure of how fast the partners come together. A low value points to slower complex formation.

B1: IAB16M2-29 (other)
chain: QVQLVQSGAEVKKPGASVKVSCKASGYTFTEYTIHWVRQAPGQRLEWIGGINPNNGIPNYNQKFKGRVTITVDTSASTAYMELSSLRSEDTAVYYCARRRIAYGYDEGHAMDYWGQGTLVTVSSGSTSGGGSGGGSGGGGSSDIVMTQSPDSLAVSLGERATINCKSSQSLLYSRNQKNYLAWYQQKPGQPPKLLIFWASTRESGVPDRFSGSGSGTDFTLTISSLQAEDFAVYYCQQYFSYPLTFGQGTKVEIKEPKSSDKTHTCPPCPPCGGGSSGGGSGGQPREPQVYTLPPSREEMTKNQVSLTCLVKGFYPSDIAVEWESNGQPENNYKTTPPVLDSDGSFFLYSKLTVDKSRWQQGNVFSCSVMHEALHNHYTQKSLSLSPG
Molecule B1 showed a Kd in experiment [1] of around 1 nM.

B2: IAB16C3-21 (other)
chain: DIVMTQSPDSLAVSLGERATINCKSSQSLLYSRNQKNYLAWYQQKPGQPPKLLIFWASTRESGVPDRFSGSGFGTDFTLTISSLQAEDVAVYYCQQYFSYPLTFGQGTKVEIKGGGSGGGGQVQLVQSGAEVKKPGASVKVSCKTSRYTFTEYTIHWVRQAPGQRLEWIGGINPNNGIPNYNQKFKGRVTITVDTSASTAYMELSSLRSEDTAVYYCARRRIAYGYDEGHAMDYWGQGTLVTVSSGGCPPCPPC
The molecule B2 gave a Kd in experiment [1] of around 1 nM.

B3: IAB16M2-9 (other)
chain: EVQLLESGGGLVQPGGSLRLSCAASGFTFSSYAMSWVRQAPGKGLEWVSAIIGSGASTYYADSVKGRFTISRDNSKNTLYLQMNSLRAEDTAVYYCAKGWFGGFNYWGQGTLVTVSSGSTSGGGSGGGSGGGGSSEIVLTQSPGTLSLSPGERATLSCRASQSVTSSYLAWYQQKPGQAPRLLINVGSRRATGIPDRFSGSGSGTDFTLTISRLEPEDFAVYYCQQGIMLPPTFGQGTKVEIKEPKSSDKTHTCPPCPPCGGGSSGGGSGGQPREPQVYTLPPSREEMTKNQVSLTCLVKGFYPSDIAVEWESNGQPENNYKTTPPVLDSDGSFFLYSKLTVDKSRWQQGNVFSCSVMHEALHNHYTQKSLSLSPG
Turning to B3, the Kd (in experiment [2]; in the experiment with human FAP on cells) was around 0.1 nM in each case.

B4: IAB16M1-54 (other)
chain: DIQMTQSPSSLSASVGDRVTITCKASQNVGTYVAWFQQKPGKAPKSLIYSASNRYSGVPSRFSGSGSGTDFTLTISSLQPEDFATYYCQQYNTYPYTFGQGTKLEIKGSTSGGGSGGGSGGGGSSQVQLVQSGAEVKKPGASVKVSCKASGYTFTSYVMHWVRQAPGQGLEWMGYINPHNDGTKYAQKFQGRVTMTRDTSTSTVYMELSSLRSEDTAVYYCARWGIYYGYGAWFAYWGQGTLVTVSSEPKSSDKTHTCPPCPPCGGGSSGGGSGGQPREPQVYTLPPSREEMTKNQVSLTCLVKGFYPSDIAVEWESNGQPENNYKTTPPVLDSDGSFFLYSKLTVDKSRWQQGNVFSCSVMHEALHNHYTQKSLSLSPG
As for B4, the Kd in experiment [3] is around 1 nM.

B5: IAB16M2-55 (other)
chain: QVQLVQSGAEVKKPGASVKVSCKASGYTFTSYVMHWVRQAPGQGLEWMGYINPHNDGTKYAQKFQGRVTMTRDTSTSTVYMELSSLRSEDTAVYYCARWGIYYGYGAWFAYWGQGTLVTVSSGSTSGGGSGGGSGGGGSSDIQMTQSPSSLSASVGDRVTITCKASQNVGTYVAWFQQKPGKAPKSLIYSASNRYSGVPSRFSGSGSGTDFTLTISSLQPEDFATYYCQQYNTYPYTFGQGTKLEIKEPKSSDKTHTCPPCPPCGGGSSGGGSGGQPREPQVYTLPPSREEMTKNQVSLTCLVKGFYPSDIAVEWESNGQPENNYKTTPPVLDSDGSFFLYSKLTVDKSRWQQGNVFSCSVMHEALHNHYTQKSLSLSPG
In the case of B5, the Kd in experiment [3] was around 1 nM.

B6: IAB16C1-20 (other)
chain: DIVMTQSPDSLAVSLGERATINCKSSQSLLYSRNQKNYLAWYQQKPGQPPKLLIFWASTRESGVPDRFSGSGFGTDFTLTISSLQAEDVAVYYCQQYFSYPLTFGQGTKVEIKSGGGGQVQLVQSGAEVKKPGASVKVSCKTSRYTFTEYTIHWVRQAPGQRLEWIGGINPNNGIPNYNQKFKGRVTITVDTSASTAYMELSSLRSEDTAVYYCARRRIAYGYDEGHAMDYWGQGTLVTVSSGGCPPCPPC
In experiment [1], B6 showed a Kd of around 1 nM.

B7: IAB16C1-38 (other)
chain: DIVMTQSPDSLAVSLGERATINCKSSQSLLYSRNQKNYLAWYQQKPGQPPKLLIFWASTRESGVPDRFSGSGSGTDFTLTISSLQAEDFAVYYCQQYYSYPLTFGQGTKVEIKSGGGGQVQLVQSGAEVKKPGASVKVSCKASGYTFTEYTIHWVRQAPGQRLEWIGGINPNNGIPNYNQKFKGRVTITVDTSASTAYMELSSLRSEDTAVYYCARRRIAYGYDEGHAMDYWGQGTLVTVSSGGCPPCPPC
B7 returned a Kd in experiment [1] of around 1 nM.

B8: IAB16M1-8 (other)
chain: EIVLTQSPGTLSLSPGERATLSCRASQSVTSSYLAWYQQKPGQAPRLLINVGSRRATGIPDRFSGSGSGTDFTLTISRLEPEDFAVYYCQQGIMLPPTFGQGTKVEIKGSTSGGGSGGGSGGGGSSEVQLLESGGGLVQPGGSLRLSCAASGFTFSSYAMSWVRQAPGKGLEWVSAIIGSGASTYYADSVKGRFTISRDNSKNTLYLQMNSLRAEDTAVYYCAKGWFGGFNYWGQGTLVTVSSEPKSSDKTHTCPPCPPCGGGSSGGGSGGQPREPQVYTLPPSREEMTKNQVSLTCLVKGFYPSDIAVEWESNGQPENNYKTTPPVLDSDGSFFLYSKLTVDKSRWQQGNVFSCSVMHEALHNHYTQKSLSLSPG
B8: the equilibrium dissociation constant (Kd) (in experiment [2]; with human FAP on cells) was around 0.1 nM throughout.

B9: IAB16M1-12 (other)
chain: DIVMTQSPDSLAVSLGERATINCKSSQSLLYSRNQKNYLAWYQQKPGQPPKLLIFWASTRESGVPDRFSGSGFGTDFTLTISSLQAEDVAVYYCQQYFSYPLTFGQGTKVEIKGSTSGGGSGGGSGGGGSSQVQLVQSGAEVKKPGASVKVSCKTSRYTFTEYTIHWVRQAPGQRLEWIGGINPNNGIPNYNQKFKGRVTITVDTSASTAYMELSSLRSEDTAVYYCARRRIAYGYDEGHAMDYWGQGTLVTVSSEPKSSDKTHTCPPCPPCGGGSSGGGSGGQPREPQVYTLPPSREEMTKNQVSLTCLVKGFYPSDIAVEWESNGQPENNYKTTPPVLDSDGSFFLYSKLTVDKSRWQQGNVFSCSVMHEALHNHYTQKSLSLSPG
notes: also called Sibrotuzumab minibody; the control
In the case of B9, the Kd in experiment [2] is around 0.1 nM; with FAP, 3.34 nM; with human FAP on cells it was around 0.1 nM. This molecule gave an off-rate (koff) with FAP of 0.00257 s⁻¹. In the experiment with FAP, this molecule showed a kon of 769000 M⁻¹ s⁻¹.

B10: 9A2 (other)
chain 1: EVQLQQSGPELVKPGASVKMSCKASGYTFTSYVMHWLKQKPGQGLEWIGYINPHNDGTKYNEKFKGKATLTSDKSSSTAYMELSSLTSEDSAVYYCARWGIYYGYGAWFAYWGQGTLVTVSA
chain 2: DIVMTQSQKFMSTSVGDRVSVTCKASQNVGTYVAWYQQKPGQSPKALIYSASNRYSGVPDRFTGSGSGTDFTLTISNVQSEDLAEYFCQQYNTYPYTFGGGTKLEIK
notes: also called murine 9A2 construct
Consider B10, for which the Kd in experiment [3] was around 1 nM.

B11: IAB16M1-49 (other)
chain: DIQMTQSPSSLSASVGDRVTITCKASQDVGIAVAWYQQKPGKAPKLLIYWASTRHTGVPSRFSGSGSGTDFTFTISSLQPEDIATYYCQQYSRYPYTFGQGTKLEIKGSTSGGGSGGGSGGGGSSDVQLVESGGGLVKPGGSLRLSCTVSGFTFSSYTMSWVRQAPGKGLEWVSTISSGGSYTYYADSVKGRFTISRDNAKNSLYLQMNSLRAEDTAVYYCTRDQVGYAMDYWGQGTLVTVSSEPKSSDKTHTCPPCPPCGGGSSGGGSGGQPREPQVYTLPPSREEMTKNQVSLTCLVKGFYPSDIAVEWESNGQPENNYKTTPPVLDSDGSFFLYSKLTVDKSRWQQGNVFSCSVMHEALHNHYTQKSLSLSPG
B11 returned a Kd in experiment [4] of around 1 nM.
